Reference: PMC10112228

Molecular target: His-CcpA (nonphosphorylated) (Streptococcus pneumoniae D39) (UniProt A0A0H2ZQ65)
Test: EMSA

Sequence: CTTTCTGTGAACGTGATTTTTTAAAACGTCTACTCATGATTAACACCTATACATTGAACATCTTACGATTATATCACTTTTTTACGGTAATGTCTACACCTTTTTTCACTATCTGCATCTTTAAGTATCTTAGTAGACTTCCCGCGAACCAAAAATATAGTAAAATGAAATAAGAACATGACAAATTGATCAGGACAGTCAAATCGTTTTCTAACAATATTTTAGAAGCAGATGTGTACTATTCTAGTTTCAATATAATATAGTACACAATGTGGTATAATCTTTTT (double strand) [Pcps2A (-250/+35)]
- binding: binds
